This passage reports activity results from patent US20250283117, “RNA-GUIDED NUCLEASES AND ACTIVE FRAGMENTS AND VARIANTS THEREOF AND METHODS OF USE” (Life Edit Therapeutics, Inc., published 2025).

Like-named read-outs stand apart in the source and are kept apart here.

Data set [1] relates to T1, APG05459.1 (Enterococcus sp.).
T1 sequence: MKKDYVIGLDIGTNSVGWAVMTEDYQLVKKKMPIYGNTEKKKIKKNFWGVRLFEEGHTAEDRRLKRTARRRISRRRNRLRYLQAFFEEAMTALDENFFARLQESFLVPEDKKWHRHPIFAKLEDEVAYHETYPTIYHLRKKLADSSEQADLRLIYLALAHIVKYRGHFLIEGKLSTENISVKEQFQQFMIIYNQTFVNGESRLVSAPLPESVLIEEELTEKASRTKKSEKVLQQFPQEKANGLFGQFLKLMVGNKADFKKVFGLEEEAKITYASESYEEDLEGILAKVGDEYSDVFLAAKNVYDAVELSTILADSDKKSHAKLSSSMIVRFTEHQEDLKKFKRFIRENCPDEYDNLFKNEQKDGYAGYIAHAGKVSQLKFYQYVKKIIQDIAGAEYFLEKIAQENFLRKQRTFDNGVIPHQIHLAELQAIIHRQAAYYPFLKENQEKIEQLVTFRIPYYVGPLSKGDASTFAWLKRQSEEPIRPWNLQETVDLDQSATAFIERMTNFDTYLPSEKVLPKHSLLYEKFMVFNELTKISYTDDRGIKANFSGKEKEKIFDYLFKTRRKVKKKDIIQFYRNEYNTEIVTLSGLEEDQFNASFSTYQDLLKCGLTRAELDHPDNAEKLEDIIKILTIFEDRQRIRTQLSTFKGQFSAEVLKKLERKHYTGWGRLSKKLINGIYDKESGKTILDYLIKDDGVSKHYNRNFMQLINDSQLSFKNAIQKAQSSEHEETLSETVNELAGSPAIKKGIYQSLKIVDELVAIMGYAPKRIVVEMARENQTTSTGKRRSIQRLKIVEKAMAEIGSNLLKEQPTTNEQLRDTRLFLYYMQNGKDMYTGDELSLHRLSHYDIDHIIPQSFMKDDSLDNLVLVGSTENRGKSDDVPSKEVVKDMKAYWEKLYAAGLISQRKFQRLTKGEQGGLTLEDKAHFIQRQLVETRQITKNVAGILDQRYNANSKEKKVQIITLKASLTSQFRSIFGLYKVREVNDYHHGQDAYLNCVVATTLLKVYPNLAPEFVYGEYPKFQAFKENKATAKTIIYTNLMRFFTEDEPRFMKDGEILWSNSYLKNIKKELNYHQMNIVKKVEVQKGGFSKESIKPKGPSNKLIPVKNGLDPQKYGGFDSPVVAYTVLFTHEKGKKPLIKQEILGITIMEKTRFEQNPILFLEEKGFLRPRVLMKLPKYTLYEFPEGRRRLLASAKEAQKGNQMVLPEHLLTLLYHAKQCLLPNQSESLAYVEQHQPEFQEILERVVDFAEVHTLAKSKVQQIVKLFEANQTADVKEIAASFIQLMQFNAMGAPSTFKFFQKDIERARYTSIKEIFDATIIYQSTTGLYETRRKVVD
Put plainly: cleavage_in_vitro.

Data set [2] deals with T2, APG05083.1 (Bacillus sp.).
T2 chain: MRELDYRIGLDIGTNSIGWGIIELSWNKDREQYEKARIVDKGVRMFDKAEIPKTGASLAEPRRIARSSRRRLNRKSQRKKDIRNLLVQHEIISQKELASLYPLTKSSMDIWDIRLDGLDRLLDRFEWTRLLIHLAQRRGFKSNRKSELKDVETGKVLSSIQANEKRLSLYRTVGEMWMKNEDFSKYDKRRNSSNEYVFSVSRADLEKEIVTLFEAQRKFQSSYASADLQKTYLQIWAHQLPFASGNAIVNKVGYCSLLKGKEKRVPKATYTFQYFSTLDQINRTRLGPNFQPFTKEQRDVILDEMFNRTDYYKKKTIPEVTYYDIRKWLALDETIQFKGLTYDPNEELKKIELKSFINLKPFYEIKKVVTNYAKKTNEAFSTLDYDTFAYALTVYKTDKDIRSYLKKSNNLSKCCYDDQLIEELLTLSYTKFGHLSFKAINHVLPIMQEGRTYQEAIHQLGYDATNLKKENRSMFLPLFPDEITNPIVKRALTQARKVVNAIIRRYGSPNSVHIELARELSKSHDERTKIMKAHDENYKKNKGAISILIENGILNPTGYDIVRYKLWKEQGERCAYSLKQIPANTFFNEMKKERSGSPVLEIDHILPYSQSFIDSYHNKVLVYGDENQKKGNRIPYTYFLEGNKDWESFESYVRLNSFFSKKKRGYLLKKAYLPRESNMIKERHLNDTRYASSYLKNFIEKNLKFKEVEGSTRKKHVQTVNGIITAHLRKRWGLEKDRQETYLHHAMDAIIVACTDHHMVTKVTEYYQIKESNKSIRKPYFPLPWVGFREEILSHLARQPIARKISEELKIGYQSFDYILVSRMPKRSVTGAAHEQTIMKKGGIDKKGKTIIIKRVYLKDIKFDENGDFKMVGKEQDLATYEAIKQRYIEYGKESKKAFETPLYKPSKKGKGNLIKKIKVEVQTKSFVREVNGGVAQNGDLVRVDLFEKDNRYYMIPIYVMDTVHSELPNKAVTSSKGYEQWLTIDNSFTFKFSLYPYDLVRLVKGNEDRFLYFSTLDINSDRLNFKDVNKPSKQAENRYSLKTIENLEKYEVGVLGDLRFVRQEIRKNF
Put plainly: cell_activity; HEK293T; PAM NNNNCC. The conditions noted are these: tags: E. coli pRSF-1b expression; human cells: N-term SV40 NLS and 3xFLAG, C-term nucleoplasmin NLS. As for the experimental part:
The constructs described above were introduced into mammalian cells. One day prior to transfection, 1×10⁵ HEK293T cells/well (Sigma) were plated in 24-well dishes in Dulbecco's modified Eagle medium (DMEM) plus 10% (vol/vol) fetal bovine serum (Gibco) and 1% Penicillin-Streptomycin (Gibco). The next day when the cells were at 50-60% confluency, 500 ng of a RGN expression plasmid plus 500 ng of a single gRNA expression plasmid were co-transfected using […] of Lipofectamine 3000 (Thermo Scientific) per well, following the manufacturer's instructions. After 48 hours of growth, total genomic DNA was harvested using a genomic DNA isolation kit (Machery-Nagel) according to the manufacturer's instructions.
Additionally, products from PCR #2 containing Illumina overhang sequences underwent library preparation following the Illumina 16S Metagenomic Sequencing Library protocol. Deep sequencing was performed on an Illumina Mi-Seq platform by a service provider (MOGene). Typically 200,000 of 250 bp paired-end reads (2×100,000 reads) are generated per amplicon. The reads were analyzed using CRISPResso (Pinello, et al. 2016 Nature Biotech, 34:695-697) to calculate the rates of editing. Output alignments were hand-curated to confirm insertion and deletion sites as well as identify microhomology sites at the recombination sites. All experiments were performed in human cells. The “target sequence” is the targeted sequence within the gene target. For each target sequence, the guide RNA comprised the complementary RNA target sequence and the appropriate sgRNA depending on the RGN used.

In data set [1], “GAGCGGACAGCAGCUUCCUAUAUCUCGUACNNNNNNNNNNNNNNNNNNNNNNNNNGUUUUAGAGUCAUGUUAAAGAACAUAGCAAGUUAAAAUAAGGUUUUAACCGUAAUCAACUGUAAAGUGGCGCUGUUUCGGCGCUUUUUUUGUUU / GAGCGGACAGCAGCTTCCTAAATCTCGTAC / GTACGAGATTTAGGAAGCTGCTGTCCGCTC [Sequence 1 sgRNA for APG05459.1 ; target mismatch 10]” registered an activity of 52 % cleaved.

Consider “GAGCGGACAGCAGCUUCCUAUAUCUCGUACNNNNNNNNNNNNNNNNNNNNNNNNNGUUUUAGAGUCAUGUUAAAGAACAUAGCAAGUUAAAAUAAGGUUUUAACCGUAAUCAACUGUAAAGUGGCGCUGUUUCGGCGCUUUUUUUGUUU / GAGCGGACAGCAGCTTCCTATAACTCGTAC / GTACGAGTTATAGGAAGCTGCTGTCCGCTC [Sequence 1 sgRNA for APG05459.1 ; target mismatch 8]”, for which the activity in data set [1] was 51 % cleaved.

With “GAGCGGACAGCAGCUUCCUAUAUCUCGUACNNNNNNNNNNNNNNNNNNNNNNNNNGUUUUAGAGUCAUGUUAAAGAACAUAGCAAGUUAAAAUAAGGUUUUAACCGUAAUCAACUGUAAAGUGGCGCUGUUUCGGCGCUUUUUUUGUUU / GAGCGGACAGCAGCTTCCTATATCTCGAAC / GTTCGAGATATAGGAAGCTGCTGTCCGCTC [Sequence 1 sgRNA for APG05459.1 ; target mismatch 3]”, in data set [1], the activity came to 3 % cleaved.

In data set [1] (incompatible PAM), “GAGCGGACAGCAGCUUCCUAUAUCUCGUACNNNNNNNNNNNNNNNNNNNNNNNNNGUUUUAGAGUCAUGUUAAAGAACAUAGCAAGUUAAAAUAAGGUUUUAACCGUAAUCAACUGUAAAGUGGCGCUGUUUCGGCGCUUUUUUUGUUU / GAGCGGACAGCAGCTTCCTATATCTCGTAC / GTACGAGATATAGGAAGCTGCTGTCCGCTC” came in with an activity of 0 % cleaved.

Molecule “GAGCGGACAGCAGCUUCCUAUAUCUCGUACNNNNNNNNNNNNNNNNNNNNNNNNNGUUUUAGAGUCAUGUUAAAGAACAUAGCAAGUUAAAAUAAGGUUUUAACCGUAAUCAACUGUAAAGUGGCGCUGUUUCGGCGCUUUUUUUGUUU / GAGCGGACAGCAGCTTCCTATATCTCGTAC / GTACGAGATATAGGAAGCTGCTGTCCGCTC [Sequence 1 sgRNA for APG05459.1 ; Sequence 1 target]” gave an activity in data set [1] (PAM SEQ 41, blunt cut 3 from PAM (Table 3)) of 67 % cleaved.

“GAGCGGACAGCAGCUUCCUAUAUCUCGUACNNNNNNNNNNNNNNNNNNNNNNNNNGUUUUAGAGUCAUGUUAAAGAACAUAGCAAGUUAAAAUAAGGUUUUAACCGUAAUCAACUGUAAAGUGGCGCUGUUUCGGCGCUUUUUUUGUUU / GAGCGGACAGCAGCTTCCTATATCTCGTAG / CTACGAGATATAGGAAGCTGCTGTCCGCTC [Sequence 1 sgRNA for APG05459.1 ; target mismatch 1]” displayed an activity in data set [1] of 0 % cleaved.

Turning to “GAGCGGACAGCAGCUUCCUAUAUCUCGUACNNNNNNNNNNNNNNNNNNNNNNNNNGUUUUAGAGUCAUGUUAAAGAACAUAGCAAGUUAAAAUAAGGUUUUAACCGUAAUCAACUGUAAAGUGGCGCUGUUUCGGCGCUUUUUUUGUUU / GAGCGGACAGCAGCTTCCTATATCTCGTTC / GAACGAGATATAGGAAGCTGCTGTCCGCTC [Sequence 1 sgRNA for APG05459.1 ; target mismatch 2]”, the activity in data set [1] was 74 % cleaved.

Consider “GAGCGGACAGCAGCUUCCUAUAUCUCGUACNNNNNNNNNNNNNNNNNNNNNNNNNGUUUUAGAGUCAUGUUAAAGAACAUAGCAAGUUAAAAUAAGGUUUUAACCGUAAUCAACUGUAAAGUGGCGCUGUUUCGGCGCUUUUUUUGUUU / GAGCGGACAGCAGCTTCCTATATCTGGTAC / GTACCAGATATAGGAAGCTGCTGTCCGCTC [Sequence 1 sgRNA for APG05459.1 ; target mismatch 5]”, for which the activity in data set [1] was found to be 0 % cleaved.

Consider “GAGCGGACAGCAGCUUCCUAUAUCUCGUACNNNNNNNNNNNNNNNNNNNNNNNNNGUUUUAGAGUCAUGUUAAAGAACAUAGCAAGUUAAAAUAAGGUUUUAACCGUAAUCAACUGUAAAGUGGCGCUGUUUCGGCGCUUUUUUUGUUU / GAGCGGACAGCAGCTTCGTATATCTCGTAC / GTACGAGATATACGAAGCTGCTGTCCGCTC [Sequence 1 sgRNA for APG05459.1 ; target mismatch 13]”, for which the activity in data set [1] was 18 % cleaved.

“GAGCGGACAGCAGCUUCCUAUAUCUCGUACNNNNNNNNNNNNNNNNNNNNNNNNNGUUUUAGAGUCAUGUUAAAGAACAUAGCAAGUUAAAAUAAGGUUUUAACCGUAAUCAACUGUAAAGUGGCGCUGUUUCGGCGCUUUUUUUGUUU / GAGCGGACTGCAGCTTCCTATATCTCGTAC / GTACGAGATATAGGAAGCTGCAGTCCGCTC [Sequence 1 sgRNA for APG05459.1 ; target mismatch 22]” returned an activity in data set [1] of 48 % cleaved.

B1: Guide 185 ; RelA target of guide 185 (ssRNA ; dsDNA)
RNA: GGACAGUGCGCAUCUCCCUGGUCAUAGUUCCAUUAUUGCAAAGGCUUUGAUGUUUCUAUGAUAAGGGCUUAGGCCCGUGGCGUUGGGGAUCGCCUGCCCAUUUUAAUGGGCUUCUCCCCAUCUAUUU
DNA 1: GGACAGTGCGCATCTCCCTG
DNA 2: CAGGGAGATGCGCACTGTCC
Consider B1, for which, in data set [2], the activity amounted to 8.2 % editing.

B2: Guide 168 ; HPRT1 target of guide 168 (ssRNA ; dsDNA)
RNA: CACAUCUCGAGCAAGACGUUGUCAUAGUUCCAUUAUUGCAAAGGCUUUGAUGUUUCUAUGAUAAGGGCUUAGGCCCGUGGCGUUGGGGAUCGCCUGCCCAUUUUAAUGGGCUUCUCCCCAUCUAUUU
DNA 1: CACATCTCGAGCAAGACGTT
DNA 2: AACGTCTTGCTCGAGATGTG
Take B2: the activity in data set [2] turned out to be 11.3 % editing.
